A protein production outcome set (Wang et al. 2014)

Test: label from the status in PepcDB records

MCKLIKCELLKLKSMLGAILAFFFPLLLVSIGLLNIYTGSVKISGTSEMWNAIYVQSSSLYGGILFPVFLSALVSLQWRVEFKNNNINNILITDKSHKDIYLSKIFSTFVIAFINIILYIIIIFISVKVLLPKETVKAFIFYGPIIGLLFSLPLICIQHFLSMNFKNFALPLVIGIVLSLPNFVASCYSFSTFIPYSYICKGMFFNVKNSLNVECPIYIFILTALIFVASVSLGTKVFKNKEFR
protein production: failed

MRYVVGHKNPDTDSIASAIVLAYFLDCYPARLGDINPETEFVLRKFGVMEPELIESAKGKEIILVDHSEKSQSFDDLEEGKLIAIIDHHKVGLTTTEPILYYAKPVGSTATVIAELYFKDAIDLIGGKKKELKPDLAGLLLSAIISDTVLFKSPTTTDLDKEMAKKLAEIAGISNIEEFGMEILKAKSVVGKLKPEEIINMDFKNFDFNGKKVGIGQVEVIDVSEVESKKEDIYKLLEEKLKNEGYDLIVFLITDIMKEGSEALVVGNKEMFEKAFNVKVEGNSVFLEGVMSRKKQVVPPLERAYNG
protein production: not failed

MSAITRYLAMLRLFGMLLCAAAIPSVATATVPVTVAVAASDVEEEAVEASAVGAEAEAARDAGYESAEVPALARRVTDLTATLDAAERARLEASLAALEARKGAQVAILMVPSTYPDSIEAYATRVFEAWKLGRKGIDDGVLVLVAKDDRRMRIEVGYGLEGTITDIDAGRIIREYMTPAFRQQDYAGGLEAAAQRLVRLIDGEALPPPPRDPLEPGAVRQTLAIAFLLGALGGVALLVRPRAWYWTLGAVVALAAALALGRHWPAGAMVALAEMVAVLGVGFGALLKYSRGARWFFAILVLYALGLFWAYRRYGLPVLHYGLAVPLSLGLSLLMLAGAWQGLRRGRRWAYLPGLLGLLLTLALECLLLLVDDPLNSIEALIILPAACLPLLIGCNFSAGGSGGGRRRGGDYASSSGSSSSSSSSSSSDSFSGGGGSSGGGGASGSWLEHHHHHH
protein production: failed

MSIENLSSNKSFGGWHKQYSHVSNTLNCAMRFAIYLPPQASTGAKVPVLYWLSGLTCSDENFMQKAGAQRLAAELGIAIVAPDTSPRGEGVADDEGYDLGQGAGFYVNATQAPWNRHYQMYDYVVNELPELIESMFPVSDKRAIAGHSMGGHGALTIALRNPERYQSVSAFSPINNPVNCPWGQKAFTAYLGKDTDTWREYDASLLMRAAKQYVPALVDQGEADNFLAEQLKPEVLEAAASSNNYPLELRSHEGYDHSYYFIASFIEDHLRFHSNYLNA
protein production: not failed

MEYKPMPYPIIDSHCHLDFPKFNPDREEAIQRARKAGVVGMVNSGISLKGNRISLELAEKNEDIHAALGLSPDIGREGSDKDINAILAQIEANAGKAVAIGEAGLDFQDCKTDEERRRQTASFKKVIELAKNLEKPLVVHARMAEAEVLELARDVDTVIYHCYSGSVETMKEIVDAGYYISLATLVCFSEHHQTLAAEVPPENLLLETDSPFLSPRRGRNEPAFIVDSIPVVAEYKEMEPAEIAKFATENARRVFKILEHHHHHH
protein production: failed

MGIRVKRRQHQHLLESLVHSTAKQQGDFTKTAELATELLCQNLAVSLVSIWIFSADQGTQSLVAQFGSMALQDTYRPSLLHTVPRYLNELKNYRHIDAGNTLIDPRLTELVDSYFIPRQILSSLDVGIRINGHLEGVLCIERAQVTHHWHDSEIHLACQMADQLALTLATKHAYDKEERLSLFRCAIEQSRQMSMLEHHHHHH
protein production: not failed

MVRRKKLLSGVLLLSGMLCTGRVMAQQWLYKQAAVPIEYRVKDLLGRMTIEEKVGQLCCPLGWEMYTKTGKNEVTVSELYKKKMAEAPVGSFWAVLRADPWTQKTLETGLSPELSAKALNALQKYAVEETRLGIPVLFAEECPHGHMAIGTTVFPTALSAASTWNEGLMLKMGEAIALEARLQGANIGYGPVLDVAREPRWSRMEETFGEDPVLTTIMGVAMMKGMQGKVQNDGKHLYATLKHFAAYGVPESGHNGSRANCGMRQLLSEYLPPFRKAVKEGAGTLMTSYNAIDGVPCTANKELLTDVLRNQWGFKGFVYSDLISIEGIVGMRAAKDNKEAAVKALKAGLDMDLGGNAFGKNLKKAYEEGLITMADLDRAVGNVLRLKFQMGLFENPYVSPELAKKLVHSKEHKELARQVAREGVVLLKNEGVLPLSKHIGHLAVIGPNADEMYNQLGDYTAPQVREEVATVLDGIRAAVSESTRVTYVKGCAVRDTTATDIPAAVAAAQKADAVVLVVGGSSARDFKTKYISTGAATVSEDAKTLPDMDCGEGFDRSSLRLLGDQEKLISAVASTGKPLVVVYIQGRTMNMNLAAEKAQALLTAWYPGEQGGMGIADILFGDYSPAGRLPVSVPRSEGQLPVFYSQGTQRDYVESKGTPLYAFGYGLSYTRFTYSGLELQKGTEMETLQTVACTVTNTGNRDGEEVVQLYIGDKVASVSQPPLLLKAFQRIFLKKGESRQVIFHLKKDDLGIYDSEMNYVVEPGEFKVMVGAASNDIRLEGEFVL
protein production: failed

GAPFRSTVTLQPTSGSLVNLTEWPPFVITLDDVELVHFERVQFHLRNFDMIFVFKEYNKKVAMVNAIPMNMLDHVKEWLNSCDIRYSEGVQSLNWQKIMKTITDDP
protein production: failed

MKGREMKIVEFMKDKMVYIVFTLIFSSIYAGVHHRSIFLSLKVTLPIALFMMLFQPMVFMDIKKAFTTRTRVKTKYLILLTFFYTLLFPVLTWIFLKFWLRMMPNTEPQLLAGMVLIGLAPLPSSSPAFTNLAGGRFQLTLVGVMWTFLLSIFVMPFYAKLILHTIIQVPIEMLLKSLILYIITPLIIGQLTKYIILHWKGTDALISLKKPLIGISLIGMYWMIVVVFGINAKVIVERPELILIGAITMNIYFLLRAAIAYFIGKALDFPFEQNISLVYSTGSNMTLATAMAIGTFGPLAAVGTALGGPFSDMLLMIFFVKLFTLIRKKYIHNERKSITGG
protein production: failed

MKKLILYTLILLLMSCRSTQEVDTSVYMDAKQPVDKRVEALLAQMTLEEKVGQMDMVTVWDKEAIFKNGYYDFGAWLADLEPEECNQLQKLSEQTRLKIPYLIGMDAAHGYAMLTGRTIFPTSISMAATFNRELIYRTTSKAGEEIRSSGIHWAFAPCIDIVQDARWGRTGETYGEDPFLTSELVKEAIRGYQGNENPFKKVAVSVKHLVGGGASVGGCNHASAELSERALRSYFLPPFKAAIEAGCMTIMPGHNDIAGVPVHASKWLLTDIIKQEYGFKGFFISDMGDVENLATSLHQIAENQKEAVCKSVNAGLDMHMYSADSARFVSPLVELVREKKVSSRRIDDAVRRILKIKFELGLFEKRYVSPEEDSYGSKENKALALEAAREAIVLLKNDRQILPLDRTKYKKILVTGPNADNQSILGDWSIFQPDDHVTTILEGIQAAASPEQSILYSNSGRIKAKKSDLSVNTTDPAIQKKLITEGGGISDYSIDDAVRKARQSDLAIVAIGGYGIRSEWGLRTYGESADRPSIDFYGRQLELVQAIHATGTPVVIVIVNGKPLNNEWITKNIPTIVDVWEPGMYGGQALAEILFGEVNPSGKLPITIPKHAGQIPMYYYQRPSRYWTGYGLGSSREDEKPAFCFGHGLSYTSYEYSGLKIDSVIPQTQDIEFTFTVKNTGNMAGKETALVFIRDCVSSVVTPVACLKGFEKVSLNPGESKDIRIVIPYSDLGLWNEDMKYVVESGKFNLMIGRSVEDIRIKKDFFIK
protein production: failed

ENPRNVGSLDKTSKNVGTGLVGAPACGDVMKLQIQVDEKGKIVDARFKTFGCGSAIASSSLATEWVKGKTVEEALTIKNTDIAKELCLPPVKLHCSMLAEDAIKAALADYKLKQESK
protein production: not failed

MPATPSLKVVHELPACTLCAGPLEDAVTVPCGHTFCRLCLPALSQMGAQSSGKILLCPLCQEEEQAETPMAPVPLGPLGETYCEEHGEKIYFFCENDAEFLCTSECRTTDGFGCA
protein production: failed

MQVKENKQLCLISLGCSKNLVDSEVMLGKLYNYTLTNDAKSADVILINTCGFIESAKQESIQTILNAAKDKKEGAILIASGCLSERYKDEIKELIPEVDIFTGVGDYDKIDIMIAKKQNQFSEQVFLSEHYNARIITGSSVHAYVKISEGCNQKCSFCAIPSFKGKLQSRELDSILKEVENLALKGYTDMTFIAQDSSSFLYDKGQKDGLIQLIRAIDKQQALKSARILYLYPSSTTLELIGAIESSPIFQNYFDMPIQHISDSMLKKMRRNSSQAHHLKLLDAMKQVKESFIRSTIIVGHPEENESEFEELSAFLDEFQFDRLNIFAFSAEENTHAYSLEKVPKKTINARIKALNKIALKHQNHSFKALLNKPIKALVENKEGEYFYKARDLRWAPEVDGEILINDSELTTPLKPGHYTIAPSEFKDNILLAKVLSPF
protein production: failed

MTAIYIGVMTGTSMDGVDFVAASFDPLHIHATLTLPFEPALRDELMALTLPGDNEIDRMGKADVGLAKLIGHGINMLIEQNHLDRHVIKAIGSHGQTIRHRPEHGFTLQIGDPHIITELTGIPVISDFRRRDMAAGGQGAPLVPAFHQAIFQHSTIHRVILNLGGIANVSLLPAGNPDGVYGFDTGPANILMDAWCERYTGHPYDENGNWAAYGQPIRALLERLQAHEFFSKKPPKSTGREDFNLDWLDDQLADWRNDELEYDELEDTPENVQATLLKLTTRAIKKAIYRSELDTGEVYVCGGGAYNSHLLEQLRWRLRKHHWSVQSTSVLGLSPTWVEATAFAWLAMRFMQQQSANLPSVTGAAGFRILGTITSV
protein production: failed

VNATQRKLLMQLVIGAAWVDGDLDQPERQYLQTLLERQKLDHDPDLLVLLETPIGLPQLEAWLVTFLQGTSTPTRLAALATIANLLMADGVVNRSEHSLLDEIHSLMAQIPASRDEEEYRQAAPGLVQGLSGLVRRALNGAKHLFQ
protein production: not failed

MNFVELAKKRYSCRNYQDRKVEKEKLEKVLDVARIAPTGGNRQPQRLIVIQEKEGINKLSKAANIYDAPLAILVCGDKDKVWTRPFDGKQLTDIDTSIVTDHMMLQATELGLASVWVCYFNPDIIREEFSLPDNLEPINILLMGYESKIPESPERHEKTRVPLSEIVSYETL
protein production: failed

MSSDDAWTAAALPDQSGRRVVVTGANSGLGFEATRAFARAGAHVVMACRSTERGEDARDDIVAELPGASLTVHELDLAALDSVAAFADWFTAEFDSLHVLANNAGVMAIPRSETADGFETQFGVNHLGHVALTAGLLGVLRRTSGETRVVTQSSGAHRRGRIDFEDLQHEAEYGKWEAYSQSKLANLLFAYELDRRLRAASASVTSVACHPGYAATNLQLRGPQAAGSRLRLLAMRAANALVGQSAEQGAWPLLYAATNPSIDGGEYIGPGGVLNMRGHPERQQPSARSRDEDTARRLWTVSADRTGVDFDLPDPA
protein production: failed

MSLPAFVEALLTPAAYPHAVTTPIQLLQTHISYVFLTGDYAYKVKKPADFGFLNFTTLERRLFYCQEELRLNRRLAPDLYLAVVPIVAVGDRYCVAHPQDLPAGAEVIEYAVQMRQFDQSQLFSHLFAANQVTPHLIESLGKELAHFHRCAATSPRISEFGSPRAIAQVINNCHALAAQFVGRCQSPEQYAAIQAFTDDFLSRRQEWFVRRQAGGKIRECHGDLHLNNICLYNGKVQIFDCIEFNEEFRNIDGIYDAAFLLMDLEFRRRGDLANLFLNTYLEWSGDYEGAVLLPLYLCVRAYIRGNVNALALNDPAISGAEKAQIQATAAAYYGAAYRYTQPRQAKLYMMCGLSGAGKSTRGRRLAQAEQAIQIRSDAVRKHLAHLPLDRRSTDFPEVDLYSDAMTEKTYDQLLAYAELLLPQGQTVILDAKYDRVALRQPVIALAKKLHVPLEIHFCSAPPEELHRRLSARQGDIAEATPDLIATQMASFEPFLPEEEPYVRHVCD
protein production: failed

QQKLAANVFKNSQDGVLIYDADGKLTLMNPAFTDIFGYQMSELSNIPMLTLFDGHHFTTSTSLITESIQRFGQWHGEVLEKDKYGAELPLYVKASKIIDTEQYGQNSYIFIFTNLS
protein production: failed

MKRVANWLAITGFVVHAISLVAGLQGHTWETISKGYFLQMLSWSMLLIYLFVWWKFKLDFLSALASPFALLIYLSSFKVAEVQSKLPESLSGLFFGLHIGTLFLSFGLMAMAFGAGVLFLHMERKIKTKEPLTGFRKDLPALSTFDRVNRLCVVWGFPLFTLGIVSGFVWAHPAWGKVITWDPKEIVSLAVWVMYALLFHQRVALGWQGRKPAVMVIWIFAVSVFSLIVVNVFMPTHHSFIQQ
protein production: failed
